Data published in doi:10.1101/2021.10.29.466502 (bioRxiv, 2021).

T1: thrombopoietin receptor MPL on Ba/F3-HuMpl cells (human, UniProt P40238 26-635, N-glycans (consensus sites N117, N178, N298, N358))
T1 sequence: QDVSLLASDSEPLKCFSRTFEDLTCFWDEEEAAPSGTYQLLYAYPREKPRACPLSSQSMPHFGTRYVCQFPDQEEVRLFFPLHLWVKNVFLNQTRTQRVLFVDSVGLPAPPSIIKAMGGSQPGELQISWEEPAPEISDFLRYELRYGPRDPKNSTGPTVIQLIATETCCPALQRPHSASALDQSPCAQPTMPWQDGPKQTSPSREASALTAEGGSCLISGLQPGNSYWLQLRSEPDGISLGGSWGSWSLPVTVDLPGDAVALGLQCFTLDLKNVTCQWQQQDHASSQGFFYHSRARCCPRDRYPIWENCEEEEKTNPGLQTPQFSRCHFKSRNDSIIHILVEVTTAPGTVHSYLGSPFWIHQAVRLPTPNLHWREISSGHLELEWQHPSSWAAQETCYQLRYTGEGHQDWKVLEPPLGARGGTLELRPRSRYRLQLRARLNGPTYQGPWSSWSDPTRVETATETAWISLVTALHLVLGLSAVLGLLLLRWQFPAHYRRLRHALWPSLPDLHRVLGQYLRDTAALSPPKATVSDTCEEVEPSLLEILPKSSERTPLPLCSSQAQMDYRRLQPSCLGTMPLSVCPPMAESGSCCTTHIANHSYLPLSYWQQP

B1: N-terminal His-tagged recombinant ThC (rThC) (natural protein)
chain: TACTTGPQTISFPAGLIVSLNASVQSSRNESVEVKDSNGNTVSRGSGSSSSGGTFTVINMEPPTFISDGNDYTVELSPQATPGILQTESSRVDNGRLIWQNYAFGANDGGCIVGDRDFNDVFVLITGLVRG

Assays:
[1] = molecular target: thrombopoietin receptor MPL on Ba/F3-HuMpl cells (human) (UniProt P40238)
[2] = molecular target: T1, thrombopoietin receptor MPL on …; assay: cell-based or functional assay

| Molecule | proliferation of Ba/F3-HuMpl cells, EC50 [1] [µg/mL] | proliferation of Ba/F3-HuMpl cells, EC50 [2] [µg/mL] |
| --- | --- | --- |
| PA-IIL (from UniProt Q9HYN5 1-115) (natural protein) | 17.5 | – |
| B1 | – | 0.26 |
